Source: patent US20210162011A1

Target: leptin receptor (LepRb), expressed on transfected HEK293 cells
Experiment: cell-based or functional assay

| cells with a p-STAT3 positive nucleus, immunofluorescence [%] | cells with a p-STAT3 positive nucleus after leptin, immunofluorescence [%] | Substance |
| --- | --- | --- |
| > 80 | – | leptin (ligand) |
| – | < 10 | recombinant human Batotin protein with a six-amino-acid His tag at its C-terminus (from UniProt Q96GX8 1-76) (ligand) |
| – | < 10 | recombinant mouse Batotin protein (76 aa) with a six-amino-acid His tag at its C-terminus (from UniProt Q8K1L6 1-76) (ligand) |
